From the supplement of paper PMC7877785
± gives the uncertainty stated by the source.

Assay: self-splicing fitness, log relative to wild type (ln ratio); higher = more splicing; Tetrahymena group I intron in knt gene, E. coli kanamycin selection, DiMSum; sequences stand for … in CUCUCU…GGAGGGAAAAGUUAUCAGGCAUGCACCUGGUAGCUAGUCUUUAAACCAAUAGAUUGCAUCGGUUUAAAAGGCAAGACCGUCAAAUUGCGGGAAAGGGGUCAACAGCCGUUCAGUACCAAGUCUCAGGGGAAACUUUGAGAUGGCCUUGCAAAGGGUAUGGUAAUAAGCUGACGGACAUGGUCCUAACCACGCAGCCAAGUCCUAAGUCAACAGAUCUUCUGUUGAUAUGGAUGCAGUUCACAGACUAAAUGUCGGUCGGGGAAGAUGUAUUCUUCUCAUAAGAUAUAGUCGGACCUCUCCUUAAUGGGAGCUAGCGGAUGAAGUGAUGCAACACUGGAGCCGCUGGGAACUAAUUUGUAUGCGAAAGUAUAUUGAUUAGUUUUGGAGUACUCGUGGUCG
In short: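 Library with all eight P1ex-region intron nucleotides randomised, intron inside the knt kanamycin-resistance gene on pET-22b(+), in E. coli BL21(DE3). Cells grew overnight at 37°C or 30°C on LB agar with or without 25 μg/mL kanamycin (plus 100 μg/mL carbenicillin, 50 μM IPTG, 0.2% rhamnose), in six replicate transformations. Pooled colonies were amplicon-sequenced on Illumina HiSeq 2500. DiMSum fitness is the error-weighted combination of wild-type-normalised replicate fold changes, kanamycin versus none.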

Row | Sequence | self-splicing fitness (ln) (37 °C) | self-splicing fitness (ln) (30 °C)
1 | UAGAAGCAAUAUUACGAGUU | -2.07 ± 0.33 | –
2 | UAGAAGCAAUAUUACGAUAC | -2.46 ± 0.27 | -2.87 ± 0.32
3 | UAGAAGCAAUAUUACGAUCG | 0.149 ± 0.11 | 0.151 ± 0.093
4 | UAGAAGCAAUAUUACGAUGA | -0.446 ± 0.1 | -0.692 ± 0.13
5 | UAGAAGCAAUAUUACGAUUC | -2.06 ± 0.21 | -2.82 ± 0.17
6 | UAGAAGCAAUAUUACGAUUU | -1.11 ± 0.095 | -0.745 ± 0.067
7 | UAGAAGCAAUAUUACGCACU | -0.846 ± 0.17 | -0.642 ± 0.15
8 | UAGAAGCAAUAUUACGCAUG | 0.583 ± 0.12 | -1.12 ± 0.1
9 | UAGAAGCAAUAUUACGCCAG | -0.617 ± 0.21 | -1.3 ± 0.16
10 | UAGAAGCAAUAUUACGCCGA | -1 ± 0.25 | -1.47 ± 0.32
11 | UAGAAGCAAUAUUACGGCUA | -0.13 ± 0.16 | -0.274 ± 0.12
12 | UAGAAGCAAUAUUACGGUUG | -0.948 ± 0.11 | -1.79 ± 0.089
13 | UAGAAGCAAUAUUACGUAUC | -2.01 ± 0.15 | -3.43 ± 0.28
14 | UAGAAGCAAUAUUACGUCUA | -0.539 ± 0.14 | -1.81 ± 0.16
15 | UAGAAGCAAUAUUACGUGGC | -3.09 ± 0.25 | -3.12 ± 0.21
16 | UAGAAGCAAUAUUACGUUCG | 0.264 ± 0.088 | -0.157 ± 0.067
17 | UAGAAGCAAUAUUACGUUUC | -0.293 ± 0.17 | -2.28 ± 0.16
18 | UAGCAGCAAUAUUACGAACG | 0.327 ± 0.085 | -0.486 ± 0.06
19 | UAGCAGCAAUAUUACGAGAC | -3.06 ± 0.32 | -1.84 ± 0.24
20 | UAGCAGCAAUAUUACGAUUA | -0.0327 ± 0.066 | -0.00343 ± 0.049
21 | UAGCAGCAAUAUUACGCAAC | -2.24 ± 0.22 | -2.32 ± 0.16
22 | UAGCAGCAAUAUUACGCCUG | -0.602 ± 0.13 | -1.79 ± 0.11
23 | UAGCAGCAAUAUUACGCGAG | -0.971 ± 0.11 | -1.83 ± 0.097
24 | UAGCAGCAAUAUUACGCGUA | 0.478 ± 0.1 | -1.2 ± 0.1
25 | UAGCAGCAAUAUUACGCGUC | -2.87 ± 0.22 | -3.43 ± 0.2

Row | Sequence | self-splicing fitness (ln) (37 °C) | self-splicing fitness (ln) (30 °C)
26 | UAGCAGCAAUAUUACGCUUG | -0.988 ± 0.19 | -2.3 ± 0.18
27 | UAGCAGCAAUAUUACGGCGG | -0.353 ± 0.13 | -0.483 ± 0.084
28 | UAGCAGCAAUAUUACGGCUC | -0.839 ± 0.12 | -0.698 ± 0.094
29 | UAGCAGCAAUAUUACGGGAC | -2.75 ± 0.26 | -4.55 ± 0.31
30 | UAGCAGCAAUAUUACGGGAG | -2.11 ± 0.11 | -2.58 ± 0.099
31 | UAGCAGCAAUAUUACGGUAU | -2.41 ± 0.094 | -2.97 ± 0.092
32 | UAGCAGCAAUAUUACGGUCG | 0.482 ± 0.094 | 0.0447 ± 0.066
33 | UAGCAGCAAUAUUACGGUCU | -1.24 ± 0.086 | -1.22 ± 0.074
34 | UAGCAGCAAUAUUACGGUUU | -0.354 ± 0.067 | -0.986 ± 0.051
35 | UAGCAGCAAUAUUACGUAAG | -0.435 ± 0.091 | -1.91 ± 0.078
36 | UAGCAGCAAUAUUACGUAGA | -1.11 ± 0.079 | -2.62 ± 0.072
37 | UAGCAGCAAUAUUACGUGCU | -1.9 ± 0.16 | -1.12 ± 0.12
38 | UAGCAGCAAUAUUACGUUCU | -0.606 ± 0.12 | -1.45 ± 0.1
39 | UAGCAGCAAUAUUACGUUGG | -2.22 ± 0.12 | -2.36 ± 0.089
40 | UAGGAGCAAUAUUACGAAUG | -0.141 ± 0.49 | -1.64 ± 0.4
41 | UAGGAGCAAUAUUACGACAG | – | -2.19 ± 0.33
42 | UAGGAGCAAUAUUACGACCG | -0.0128 ± 0.23 | 0.0998 ± 0.18
43 | UAGGAGCAAUAUUACGAGCA | -1.58 ± 0.15 | -2.38 ± 0.17
44 | UAGGAGCAAUAUUACGAUCA | -0.542 ± 0.28 | -1.02 ± 0.2
45 | UAGGAGCAAUAUUACGCAAG | -0.879 ± 0.22 | –
46 | UAGGAGCAAUAUUACGCAGU | -1.96 ± 0.28 | –
47 | UAGGAGCAAUAUUACGCGCG | -1.29 ± 0.14 | -0.62 ± 0.11
48 | UAGGAGCAAUAUUACGGAAC | -0.574 ± 0.4 | –
49 | UAGGAGCAAUAUUACGGACA | -0.442 ± 0.18 | -3.74 ± 0.4
